Source: patent US20140079638A1 (RAMOT AT TEL AVIV UNIVERSITY, published 2014)
No end group written: not given here.

Target: αvβ3 integrin receptor on human umbilical vein endothelial cells (HUVEC) (human, UniProt P06756 31-1048; P05106 27-788)
Assay: cell-based or functional assay

Sequence of αvβ3 integrin receptor on human umbilical vein endothelial cells (HUVEC) (P06756 31-1048, chain 1 of 2): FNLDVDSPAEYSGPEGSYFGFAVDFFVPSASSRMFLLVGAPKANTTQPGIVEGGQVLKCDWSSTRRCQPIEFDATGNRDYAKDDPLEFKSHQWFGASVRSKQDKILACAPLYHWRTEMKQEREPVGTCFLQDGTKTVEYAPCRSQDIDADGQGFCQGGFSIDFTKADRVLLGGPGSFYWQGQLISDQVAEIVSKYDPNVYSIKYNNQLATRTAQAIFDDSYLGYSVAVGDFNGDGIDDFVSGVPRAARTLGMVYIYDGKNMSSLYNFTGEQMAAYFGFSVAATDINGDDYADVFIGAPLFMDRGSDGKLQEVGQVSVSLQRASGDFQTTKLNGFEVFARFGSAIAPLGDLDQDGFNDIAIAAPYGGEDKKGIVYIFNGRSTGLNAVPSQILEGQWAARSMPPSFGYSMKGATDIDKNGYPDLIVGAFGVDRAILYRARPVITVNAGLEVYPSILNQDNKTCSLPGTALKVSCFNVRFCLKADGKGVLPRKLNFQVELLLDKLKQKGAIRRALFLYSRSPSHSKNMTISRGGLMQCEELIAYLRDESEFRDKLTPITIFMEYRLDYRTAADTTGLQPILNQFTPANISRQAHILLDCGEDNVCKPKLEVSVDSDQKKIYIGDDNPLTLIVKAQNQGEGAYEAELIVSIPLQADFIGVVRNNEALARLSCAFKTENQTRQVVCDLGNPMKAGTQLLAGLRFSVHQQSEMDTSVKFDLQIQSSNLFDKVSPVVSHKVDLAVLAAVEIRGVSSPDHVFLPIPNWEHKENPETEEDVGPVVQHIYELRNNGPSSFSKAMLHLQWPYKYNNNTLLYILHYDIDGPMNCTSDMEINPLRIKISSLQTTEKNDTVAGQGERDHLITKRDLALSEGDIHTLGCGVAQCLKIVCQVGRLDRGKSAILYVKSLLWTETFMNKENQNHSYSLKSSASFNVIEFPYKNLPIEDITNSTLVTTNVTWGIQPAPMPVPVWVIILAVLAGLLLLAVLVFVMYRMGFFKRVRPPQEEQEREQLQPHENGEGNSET
Sequence of αvβ3 integrin receptor on human umbilical vein endothelial cells (HUVEC) (P05106 27-788, chain 2 of 2): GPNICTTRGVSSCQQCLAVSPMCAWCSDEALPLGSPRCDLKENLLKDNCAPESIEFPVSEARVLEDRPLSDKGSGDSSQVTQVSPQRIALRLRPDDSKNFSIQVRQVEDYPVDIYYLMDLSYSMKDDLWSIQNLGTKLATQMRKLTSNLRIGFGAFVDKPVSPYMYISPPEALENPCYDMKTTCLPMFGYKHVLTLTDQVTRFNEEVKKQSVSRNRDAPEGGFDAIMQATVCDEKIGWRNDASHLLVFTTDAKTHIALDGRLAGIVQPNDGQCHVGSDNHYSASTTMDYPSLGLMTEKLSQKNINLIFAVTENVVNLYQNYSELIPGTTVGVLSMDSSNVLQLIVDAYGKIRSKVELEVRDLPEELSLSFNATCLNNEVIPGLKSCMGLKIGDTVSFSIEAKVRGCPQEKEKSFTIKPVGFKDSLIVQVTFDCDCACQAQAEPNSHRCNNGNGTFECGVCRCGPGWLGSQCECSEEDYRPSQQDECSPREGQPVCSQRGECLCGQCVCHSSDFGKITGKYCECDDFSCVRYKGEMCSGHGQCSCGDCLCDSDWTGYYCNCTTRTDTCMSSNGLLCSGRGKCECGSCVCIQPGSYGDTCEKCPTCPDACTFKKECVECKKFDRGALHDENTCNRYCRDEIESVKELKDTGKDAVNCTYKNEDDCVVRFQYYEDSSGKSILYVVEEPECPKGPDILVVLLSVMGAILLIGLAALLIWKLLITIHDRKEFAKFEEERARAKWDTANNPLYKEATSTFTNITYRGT

Row | Binder | inhibition of HUVEC adhesion to fibrinogen
1 | RGDFKERGDFK (not fully specified (residues 4, 5, 10, 11, bridges); also: two cyclic RGDfk rings joined through Glu spacer, paclitaxel ester-linked to PGA, 2.6 mol %) | ~60%
2 | RGDFKERGDFK (not fully specified (residues 4, 5, 10, 11, bridges); also: two cyclic RGDfk rings joined through Glu spacer, paclitaxel ester-linked to PGA, 5.5 mol %) | ~60%
